From US20140357845A1 come the findings set out here.

What all share (test): FACS
Assay [1] addresses H3-mini2-cl9 + 10 + 11 + 12-GCN4 (influenza A virus H3N2) (UniProt O11283).
Assay [2] addresses HK68 H3m2-cl9 + 10 + 11 + 12 (influenza A virus H3N2) (UniProt Q91MA7).
Assay [3] addresses HK68 H3m2-cl9 + 10 + 11 + 12-GCN4 (influenza A virus H3N2) (UniProt Q91MA7).
Assay [4] addresses HK68 H3m2-cl9 + 10 + 11 + 12-tri (influenza A virus H3N2) (UniProt Q91MA7).
For assay [5], the target named is HK68 H3m2-cl9 + 10 + 12 (influenza A virus H3N2) (UniProt Q91MA7).
Assay [6] concerns the target mini2 cluster11 + 5 (A/Brisbane/59/2007) (influenza A virus H1N1) (UniProt A8C8J4).
For assay [7], the target named is miniHA (A/Brisbane/59/2007) (influenza A virus H1N1) (UniProt A8C8J4).
The target of assay [8] is miniHA cluster1 (A/Brisbane/59/2007) (influenza A virus H1N1) (UniProt A8C8J4).

On to CR8020 (antibody), for which the % positive cells is 60% in assay [1]; > 15% in assay [2]; > 15% in assay [3]; > 15% in assay [4]; > 15% in assay [5].
As for CR6254 (antibody), the MFI relative to full-length HA in assay [6] stood at 50%; in assay [8], 10%. The % positive cells was 1 to 3% in assay [7] and 60% in assay [8].
Turning to CR6328 (antibody), the % positive cells in assay [7] is 1 to 3%; in assay [8], 60%.
Turning to CR8043 (antibody), the % positive cells in assay [2], in assay [3], in assay [4] and in assay [5] was > 15% throughout.
